Reference: patent US20240124575A1 (SIMCERE ZAIMING PHARMACEUTICAL, published 2024)
Like-named read-outs stand apart in the source and are kept apart here.

Columns and labels:
monkey CD33 protein [1] = target: T1, monkey CD33 protein (monkey); experiment: ELISA, coated monkey CD33, antibody 10 nM
T1 construct: The printed catalogue numbers for murine and monkey CD33 may be interchanged; also called monkey CD33-His protein

monkey CD33 protein [2] = target: T1, monkey CD33 protein; experiment: ELISA, coated monkey CD33, antibody 0.001 nM
human CD33-His [3] = target: T2, human CD33-His (human, UniProt P20138 18-259); experiment: SPR (Biacore), antibody captured on Protein A chip, human CD33-his as analyte
T2 construct: range 18-259; Bought protein; also called human CD33-his protein; hCD33-his; not shown: His tag
T2 sequence (P20138 18-259 limits assumed): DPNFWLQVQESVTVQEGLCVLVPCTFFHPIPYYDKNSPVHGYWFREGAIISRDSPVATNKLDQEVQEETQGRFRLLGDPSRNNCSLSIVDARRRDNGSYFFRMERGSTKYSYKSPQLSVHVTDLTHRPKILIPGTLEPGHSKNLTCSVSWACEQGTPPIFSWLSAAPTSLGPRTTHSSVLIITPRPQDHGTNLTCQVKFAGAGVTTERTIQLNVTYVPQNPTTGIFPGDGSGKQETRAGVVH
Procedure: (§1) The sample and running buffer was HBS-EP+ (10 mM HEPES, 150 mM NaCl, 3 mM EDTA, 0.05% surfactant P20) (GE Healthcare; BR-1006-69). The flow cell was set at 25° C. The sample block was set at 16° C. Both were pretreated with the running buffer. In each cycle, first, the antibody to be tested was captured using the Protein A chip, and then a single concentration of CD33 antigen protein was injected. The association and dissociation processes of the antibody with the antigen protein were recorded, and finally, the chip was regenerated using Glycine pH 1.5 (GE Healthcare; BR-1003-54). The association was determined by injecting different concentrations of recombinant human CD33-his in the solution and maintaining for 240 s, wherein the flow rate was 30 μL/min, and the protein was diluted in a 1:1 dilution ratio from 200 nM to obtain 5 concentrations in total. The dissociation phase was monitored for up to 600 s and triggered by switching from the sample solution to the running buffer. The surface was regenerated by washing with 10 mM glycine solution (pH 1.5) at a flow rate of 30 μL/min for 30 s. The difference in bulk refractive index was corrected by subtracting the responses obtained from the […]. Blank injections were also subtracted (=double reference). To calculate the apparent KD and other kinetic parameters, the Langmuir 1:1 model was used.

monkey CD33 protein [4] = target: T1, monkey CD33 protein; experiment: ELISA, coated monkey CD33, antibody 0.1 nM
monkey CD33 protein [5] = target: T1, monkey CD33 protein; experiment: SPR (Biacore), antibody captured on Protein A chip, monkey CD33 protein as analyte
Procedure: as §1
(§2) The assay on affinity of VHH-Fc antibodies for monkey CD33 protein (Sino Biological, Cat. No. 50712-M08H) was performed according to the method in Example 7.1.

monkey CD33 protein [6] = target: T1, monkey CD33 protein; experiment: ELISA, coated monkey CD33, antibody 0.0001 nM
monkey CD33 protein [7] = target: T1, monkey CD33 protein; experiment: ELISA, coated monkey CD33, antibody 10 nM; remark: listed apart in the source
monkey CD33 protein [8] = target: T1, monkey CD33 protein; experiment: ELISA, coated monkey CD33, antibody 100 nM
monkey CD33 protein [9] = target: T1, monkey CD33 protein; experiment: ELISA, coated monkey CD33, antibody 0.01 nM
monkey CD33 protein [10] = target: T1, monkey CD33 protein; experiment: SPR (Biacore), antibody captured on Protein A chip, monkey CD33 protein as analyte; remark: listed apart in the source
Procedure: as §1, §2

monkey CD33 protein [11] = target: T1, monkey CD33 protein; experiment: ELISA, coated monkey CD33, antibody 0.001 nM; remark: listed apart in the source
human CD33-His [12] = target: T2, human CD33-His; experiment: SPR (Biacore), antibody captured on Protein A chip, human CD33-his as analyte; remark: listed apart in the source
Procedure: as §1

monkey CD33 protein [13] = target: T1, monkey CD33 protein; experiment: ELISA, coated monkey CD33, antibody 1 nM
monkey CD33 protein [14] = target: T1, monkey CD33 protein; experiment: ELISA, coated monkey CD33, antibody 1 nM; remark: listed apart in the source
monkey CD33 protein [15] = target: T1, monkey CD33 protein; experiment: ELISA, coated monkey CD33, antibody 0.0001 nM; remark: listed apart in the source
monkey CD33 protein [16] = target: T1, monkey CD33 protein; experiment: ELISA, coated monkey CD33, antibody 0.1 nM; remark: listed apart in the source
monkey CD33 protein [17] = target: T1, monkey CD33 protein; experiment: ELISA, coated monkey CD33, antibody 0.01 nM; remark: listed apart in the source
monkey CD33 protein [18] = target: T1, monkey CD33 protein; experiment: ELISA, coated monkey CD33, antibody 100 nM; remark: listed apart in the source
[19] = target: T3, monkey CD33 on HEK293T-monkey CD33 cells (monkey); experiment: FACS on HEK293T-monkey CD33 cells
T3 construct: whole, on cells

[20] = target: T3, monkey CD33 on HEK293T-monkey CD33 cells; experiment: FACS on HEK293T-monkey CD33 cells; remark: listed apart in the source

B1: C33B904 (antibody, human IgG1, kappa, V domains shown)
VH: EVQLVESGGGLVQPGRSLRLSCAASGFTFDDYAMHWVRQAPGKGLEWVSGIGWSGGSIVYADSVKGRFTISRDNAKNSLYLQMNSLRAEDTALYYCAKDSPYGDFFDYWGQGTLVTVSS
VL: DIVMTQSPDSLAVSLGERATINCKSSQTVFYSSNNKNYLAWYQQKPGQPPKLLISWASTRKSGVPDRFSGSGSGTDFTLTVSSLQAEDVAVYYCQHYYSTPYTFGQGTKLEIKR
notes: Control antibody, intact human IgG1; variable regions from US20190382481A1; also called C33B904 hIgG1; C331B904
OD450 (monkey CD33 protein [1]): 3.23 OD450
OD450 (monkey CD33 protein [2]): 0.07 OD450
Kd (human CD33-His [3]): 0.157 nM
koff (human CD33-His [3]): 4.08e-05 s⁻¹
kon (human CD33-His [3]): 260000 M⁻¹ s⁻¹
OD450 (monkey CD33 protein [4]): 0.99 OD450
Kd (monkey CD33 protein [5]): 0.492 nM
koff (monkey CD33 protein [5]): 0.000632 s⁻¹
kon (monkey CD33 protein [5]): 1.29e+06 M⁻¹ s⁻¹
OD450 (monkey CD33 protein [6]): 0.04 OD450
OD450 (monkey CD33 protein [7]): 3.09 OD450
OD450 (monkey CD33 protein [8]): 3.4 OD450
OD450 (monkey CD33 protein [9]): 0.29 OD450
Kd (monkey CD33 protein [10]): 0.494 nM
koff (monkey CD33 protein [10]): 0.000497 s⁻¹
kon (monkey CD33 protein [10]): 1.01e+06 M⁻¹ s⁻¹
OD450 (monkey CD33 protein [11]): 0.06 OD450
Kd (human CD33-His [12]): 0.155 nM
koff (human CD33-His [12]): 7.44e-05 s⁻¹
kon (human CD33-His [12]): 479000 M⁻¹ s⁻¹
OD450 (monkey CD33 protein [13]): 2.73 OD450
OD450 (monkey CD33 protein [14]): 2.52 OD450
OD450 (monkey CD33 protein [15]): 0.06 OD450
OD450 (monkey CD33 protein [16]): 1.15 OD450
OD450 (monkey CD33 protein [17]): 0.15 OD450
OD450 (monkey CD33 protein [18]): 3.06 OD450
EC50 [19]: 4.8 nM
Max MFI [19]: 7880 MFI
EC50 [20]: 5.7 nM
Max MFI [20]: 3590 MFI
